# Reference: paper doi:10.1101/2021.04.13.439572
# Columns and labels:
# Test in all cases: fluorescence polarisation
# [1] = target: KPNB1 HEAT, tag cleaved, for affinity measurements
# [2] = target: 14-3-3 protein sigma (14-3-3 SFN), tag cleaved, for affinity measurements
# [3] = target: KPNA4 ARM, MBP-tagged, for affinity measurements
# [4] = target: MDM2 SWIB, cleaved from the His-GST tag, for affinity measurements
# [5] = target: TLN1 PTB, tag cleaved, for affinity measurements
substance,measurement,setting,value
KPNA2_(514-529) C-terminal synthetic peptide (from UniProt P52292 514-529),Ki,[1],1000 µM
MAP1A_(1836-1851) synthetic peptide,Ki,[2],355 µM
NKX2-5_(192-207) K194R synthetic peptide (from UniProt P52952 192-207),fold loss of affinity against wild-type NKX2-5 (192-207),[3],10 fold
NUMB_(615-630) synthetic peptide (from UniProt P49757 615-630),Ki,[4],3.3 µM
RNF115_(69-84) synthetic peptide (from UniProt Q9Y4L5 69-84),Ki,[4],0.17 µM
integrin beta-3 ITB3_(763-778) synthetic peptide,Ki,[5],500 µM
